# Measured values taken from IntAct's records for PubMed 9488481.
# B1: Death-associated protein kinase 3 (Mus musculus), O54784 (parent)
# chain: MSTFRQEDVEDHYEMGEELGSGQFAIVRKCQQKGTGMEYAAKFIKKRRLPSSRRGVSREEIEREVSILREIRHPNIITLHDVFENKTDVVLILELVSGGELFDFLAEKESLTEDEATQFLKQILDGVHYLHSKRIAHFDLKPENIMLLDKHAASPRIKLIDFGIAHRIEAGSEFKNIFGTPEFVAPEIVNYEPLGLEADMWSIGVITYILLSGASPFLGETKQETLTNISAVNYDFDEEYFSSTSELAKDFIRRLLVKDPKRRMTIAQSLEHSWIKVRRREDGARKPERRRLRAARLREYSLKSHSSMPRNTSYASFERFSRVLEDVAAAEQGLRELQRGRRQCRERVCALRAAAEQREARCRDGSAGLGRDLRRLRTELGRTEALRTRAQEEARAALLGAGGLKRRLCRLENRYDALAAQVAAEVQFVRDLVRALEQERLQAECGVR
# partner: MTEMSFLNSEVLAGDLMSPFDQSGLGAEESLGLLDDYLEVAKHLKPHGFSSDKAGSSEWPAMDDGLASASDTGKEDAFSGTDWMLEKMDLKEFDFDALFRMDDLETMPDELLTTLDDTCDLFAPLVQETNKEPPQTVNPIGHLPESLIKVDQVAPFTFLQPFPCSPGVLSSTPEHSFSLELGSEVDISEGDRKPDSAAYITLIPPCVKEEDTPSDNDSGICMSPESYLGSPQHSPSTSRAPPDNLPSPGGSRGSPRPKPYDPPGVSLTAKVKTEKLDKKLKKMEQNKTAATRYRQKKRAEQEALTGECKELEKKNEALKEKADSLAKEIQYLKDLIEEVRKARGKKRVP
# Variants of: B1
# Settings: with atf4_mouse Atf4, Q06507
row,Variant,effect of a mutation on the interaction
1,V422A;V429A;L436A,disrupting interaction
